Source: patent US20090252683A1 (Amgen, published 2009)

T1: human EpCAM antigen on Kato III cells or human EpCAM transfected CHO cells (human, UniProt P16422 24-265)
T1 construct: 137 holds only the extracellular portion; the protein stood whole on cells
T1 sequence: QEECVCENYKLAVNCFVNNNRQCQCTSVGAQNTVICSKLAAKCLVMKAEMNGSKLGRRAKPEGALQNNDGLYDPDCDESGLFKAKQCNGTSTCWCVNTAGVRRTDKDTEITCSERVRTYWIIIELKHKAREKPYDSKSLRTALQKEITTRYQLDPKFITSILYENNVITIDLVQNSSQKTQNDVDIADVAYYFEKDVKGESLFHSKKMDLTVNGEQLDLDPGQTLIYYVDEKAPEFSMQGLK

T2: cynomolgus EpCAM antigen on transfected CHO cells (cynomolgus, UniProt Q1WER1 24-265 (rhesus entry))
T2 construct: 48 holds the extracellular portion
T2 sequence: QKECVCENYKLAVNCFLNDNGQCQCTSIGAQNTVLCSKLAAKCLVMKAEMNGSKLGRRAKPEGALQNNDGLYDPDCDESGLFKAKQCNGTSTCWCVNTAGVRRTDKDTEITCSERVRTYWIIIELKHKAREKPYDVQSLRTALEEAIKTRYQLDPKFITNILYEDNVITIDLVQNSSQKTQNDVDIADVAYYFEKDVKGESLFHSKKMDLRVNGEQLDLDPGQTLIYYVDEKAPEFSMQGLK


Assays:
[1] = biological target: T1, human EpCAM antigen on Kato III cells …; experiment: FACS, Kato III cells (FIG. 8A), anti-His detection
Description: (§1) FIG. 8: FACS assay for binding of 2G8LH×SEQ ID NO. 12, 2G8LH×SEQ ID NO. 10, 2G8LH×SEQ ID NO. 16, 2G8LH×SEQ ID NO. 14, 2G8HL×SEQ ID NO. 12, 2G8HL×SEQ ID NO. 10, 2G8HL×SEQ ID NO. 16 and 2G8HL×SEQ ID NO. 14 on Kato III (FIG. 8A) cells or cynomolgus EpCAM transfected CHO cells (FIG. 8B) and HPB-ALL cells. Antigen binding was clearly detectable for the anti EpCAM specificities as well as for the anti CD3 specificities. As a negative control for binding to cynomolgus EpCAM, the 5-10LH×SEQ ID NO.
(§2) Binding of the bifunctional constructs from cell culture supernatants or binding of purified bifunctional constructs to the human EpCAM antigen on Kato III cells or cynomolgus EpCAM transfected CHO cells and to the CD3 antigen on HPB-ALL cells was tested using an FACS assay. For that purpose 2.5×10⁵ cells were incubated with 50 μl supernatant or with 5 μg/ml of the purified constructs in 50 μl PBS with 2% FCS. The binding of the constructs was detected with an anti-His antibody (Penta-His Antibody, BSA free, obtained from Qiagen GmbH, Hilden, FRG) at 2 μg/ml in 50 μl PBS with 2% FCS. […] The samples were measured on a FACSscan (BD biosciences, Heidelberg, FRG). Antigen binding was clearly detectable for the anti EpCAM specificities as well as for the anti CD3 specificities (see FIG. 8). As a negative control for binding to cynomolgus EpCAM, the 5-10LH×SEQ ID NO. […] The 5-10LH part only binds to human EpCAM.

[2] = biological target: T2, cynomolgus EpCAM antigen on transfected …; experiment: FACS, cynomolgus EpCAM transfected CHO cells (FIG. 8B), anti-His detection
Description: as §1, §2

binding result [1] | binding result [2] | Binder
binds | binds | 2G8HL×SEQ ID NO. 10 bispecific single chain antibody (bispecific antibody) EVQLQQSGAELVRSGASVKLSCTASGFNIKDYYLHWVKQRPEQGLEWIAWIDLENGDIKYAPKFQGKATITADTSSNTAYLQLSSLTSEDTAVYYCNPYYYGSNYDYAMDYWGQGTSVTVSSGGGGSGGGGSGGGGSDVVMTQTPLTLSVTIGQPASISCKSSQSLLYSNGKTYLNWILQRPGQSPKRLIYLVSKLDSGVPDRFTGSGSGTDFTLKISRVEAEDLGVYYCVQGTHFPLTFGAGTKLELKSGGGGSEVKLLESGGGLVQPKGSLKLSCAASGFTFNTYAMNWVRQAPGKGLEWVARIRSKYNNYATYYADSVKDRFTISRDDSQSILYLQMNNLKTEDTAMYYCVRHGNFGNSYVSWFAYWGQGTLVTVSAGGGGSGGGGSGGGGSQAVVTQESALTTSPGETVTLTCRSSTGAVTTSNYANWVQEKPDHLFTGLIGGTNKRAPGVPARFSGSLIGDKAALTITGAQTEDEAIYFCALWYSNLWVFGGGTKLTVLHHHHHH
binds | binds | 2G8HL×SEQ ID NO. 14 bispecific single chain antibody (bispecific antibody) EVQLQQSGAELVRSGASVKLSCTASGFNIKDYYLHWVKQRPEQGLEWIAWIDLENGDIKYAPKFQGKATITADTSSNTAYLQLSSLTSEDTAVYYCNPYYYGSNYDYAMDYWGQGTSVTVSSGGGGSGGGGSGGGGSDVVMTQTPLTLSVTIGQPASISCKSSQSLLYSNGKTYLNWILQRPGQSPKRLIYLVSKLDSGVPDRFTGSGSGTDFTLKISRVEAEDLGVYYCVQGTHFPLTFGAGTKLELKSGGGGSQVQLQQSGAELARPGASVKMSCKASGYTFTRSTMHWVKQRPGQGLEWIGYINPSSAYTNYNQKFKDKATLTADKSSSTAYMQLSSLTSEDSAVYYCASPQVHYDYNGFPYWGQGTLVTVSAGGGGSGGGGSGGGGSQVVLTQSPAIMSAFPGEKVTMTCSASSSVSYMNWYQQKSGTSPKRWIYDSSKLASGVPARFSGSGSGTSYSLTISSMETEDAATYYCQQWSRNPPTFGGGTKLQITHHHHHH
binds | binds | 2G8HL×SEQ ID NO. 16 bispecific single chain antibody (bispecific antibody) EVQLQQSGAELVRSGASVKLSCTASGFNIKDYYLHWVKQRPEQGLEWIAWIDLENGDIKYAPKFQGKATITADTSSNTAYLQLSSLTSEDTAVYYCNPYYYGSNYDYAMDYWGQGTSVTVSSGGGGSGGGGSGGGGSDVVMTQTPLTLSVTIGQPASISCKSSQSLLYSNGKTYLNWILQRPGQSPKRLIYLVSKLDSGVPDRFTGSGSGTDFTLKISRVEAEDLGVYYCVQGTHFPLTFGAGTKLELKSGGGGSQVVLTQSPAIMSAFPGEKVTMTCSASSSVSYMNWYQQKSGTSPKRWIYDSSKLASGVPARFSGSGSGTSYSLTISSMETEDAATYYCQQWSRNPPTFGGGTKLQITGGGGSGGGGSGGGGSQVQLQQSGAELARPGASVKMSCKASGYTFTRSTMHWVKQRPGQGLEWIGYINPSSAYTNYNQKFKDKATLTADKSSSTAYMQLSSLTSEDSAVYYCASPQVHYDYNGFPYWGQGTLVTVSAHHHHHH
